Molecular target: the molecule itself
Test: SEC-MALS; pure protein on XBridge BEH200 7.8 x 300 in 50 mM Tris 7.8, 200 mM NaCl, 5 mM β-ME, 1 mL/min; MALS with refractive index

Row | Protein | stoichiometry N
1 | deoxyhypusine synthase (DHS), full-length, wild type (enzyme, human, UniProt P49366 1-369, looked up, Cys177 covalently modified to a β-mercaptoethanol (BME) adduct (seen in all crystal structures), human deoxyhypusine synthase, Uniprot P49366, residues 1-369; gene optimised for E. coli and synthesised; Cloned in pET24d (NcoI/BamHI) with an N-terminal 6xHis-tag and a TEV site; also called DHS wt; full length DHS; source: E. coli BL21(DE3), purified (HisTrap, TEV cleavage, reverse HisTrap, SEC); not shown: His6, N-terminal, cleaved) MEGSLEREAPAGALAAVLKHSSTLPPESTQVRGYDFNRGVNYRALLEAFGTTGFQATNFGRAVQQVNAMIEKKLEPLSQDEDQHADLTQSRRPLTSCTIFLGYTSNLISSGIRETIRYLVQHNMVDVLVTTAGGVEEDLIKCLAPTYLGEFSLRGKELRENGINRIGNLLVPNENYCKFEDWLMPILDQMVMEQNTEGVKWTPSKMIARLGKEINNPESVYYWAQKNHIPVFSPALTDGSLGDMIFFHSYKNPGLVLDIVEDLRLINTQAIFAKCTGMIILGGGVVKHHIANANLMRNGADYAVYINTAQEFDGSDSGARPDEAVSWGKIRVDAQPVKVYADASLVFPLLVAETFAQKMDAFMHEKNED | 4
2 | truncated DHS Δ1-52 (domain or fragment, human, UniProt P49366 53-369, looked up, human deoxyhypusine synthase, Uniprot P49366, residues 53-369 (lacks the N-terminal ball-and-chain motif, residues 1-52); Cloned in pET24d with an N-terminal 6xHis-tag and a TEV site; also called truncation mutant; source: E. coli BL21(DE3), purified (HisTrap, TEV cleavage, reverse HisTrap, SEC); not shown: His6, N-terminal, cleaved) GFQATNFGRAVQQVNAMIEKKLEPLSQDEDQHADLTQSRRPLTSCTIFLGYTSNLISSGIRETIRYLVQHNMVDVLVTTAGGVEEDLIKCLAPTYLGEFSLRGKELRENGINRIGNLLVPNENYCKFEDWLMPILDQMVMEQNTEGVKWTPSKMIARLGKEINNPESVYYWAQKNHIPVFSPALTDGSLGDMIFFHSYKNPGLVLDIVEDLRLINTQAIFAKCTGMIILGGGVVKHHIANANLMRNGADYAVYINTAQEFDGSDSGARPDEAVSWGKIRVDAQPVKVYADASLVFPLLVAETFAQKMDAFMHEKNED | 2
